Type in all cases: functional, cell membranes
Settings in all cases: Membrane vesicle

Substrate in data set [1]: CCCCC/C=C\C/C=C\C=C\C=C\[C@@H](SC[C@@H](NC(=O)CC[C@H](N)C(=O)O)C(=O)NCC(=O)O)[C@@H](O)CCCC(=O)O
The experiment in a line: (§1) TP_TRANSPORTER: uptake in membrane vesicles from MRP3-expressing HEK293 cells.

Substrate in data set [2]: CN(Cc1cnc2nc(N)nc(N)c2n1)c1ccc(C(=O)N[C@@H](CCC(=O)O)C(=O)O)cc1
The description is as §1.

Substrate in data set [3]: C[C@H](CCC(=O)NCC(=O)O)[C@H]1CC[C@H]2[C@@H]3[C@H](O)C[C@@H]4C[C@H](O)CC[C@]4(C)[C@H]3C[C@H](O)[C@]12C
The data set is described as §1.

Substrate in data set [4]: C[C@]12CC[C@@H]3c4ccc(O)cc4CC[C@H]3[C@@H]1CC[C@@H]2O[C@@H]1O[C@H](C(=O)O)[C@@H](O)[C@H](O)[C@H]1O
The description is as §1.

Substrate in data set [5]: N[C@@H](CCC(=O)N[C@H](CSc1ccc([N+](=O)[O-])cc1[N+](=O)[O-])C(=O)NCC(=O)O)C(=O)O
The description is as §1.

B1: Multidrug resistance associated protein (Homo sapiens), Q96QA9 (protein)
chain: MDALCGSGELGSKFWDSNLSVHTENPDLTPCFQNSLLAWVPCIYLWVALPCYLLYLRHHCRGYIILSHLSKLKMVLGVLLWCVSWADLFYSFHGLVHGRAPAPVFFVTPLVVGVTMLLATLLIQYERLQGVQSSGVLIIFWFLCVVCAIVPFRSKILLAKAEGEISDPFRFTTFYIHFALVLSALILACFREKPPFFSAKNVDPNPYPETSAGFLSRLFFWWFTKMAIYGYRHPLEEKDLWSLKEEDRSQMVVQQLLEAWRKQEKQTARHKASAAPGKNASGEDEVLLGARPRPRKPSFLKALLATFGSSFLISACFKLIQDLLSFINPQLLSILIRFISNPMAPSWWGFLVAGLMFLCSMMQSLILQHYYHYIFVTGVKFRTGIMGVIYRKALVITNSVKRASTVGEIVNLMSVDAQRFMDLAPFLNLLWSAPLQIILAIYFLWQNLGPSVLAGVAFMVLLIPLNGAVAVKMRAFQVKQMKLKDSRIKLMSEILNGIKVLKLYAWEPSFLKQVEGIRQGELQLLRTAAYLHTTTTFTWMCSPFLVTLITLWVYVYVDPNNVLDAEKAFVSVSLFNILRLPLNMLPQLISNLTQASVSLKRIQQFLSQEELDPQSVERKTISPGYAITIHSGTFTWAQDLPPTLHSLDIQVPKGALVAVVGPVGCGKSSLVSALLGEMEKLEGKVHMKGSVAYVPQQAWIQNCTLQENVLFGKALNPKRYQQTLEACALLADLEMLPGGDQTEIGEKGINLSGGQRQRVSLARAVYSDADIFLLDDPLSAVDSHVAKHIFDHVIGPEGVLAGKTRVLVTHGISFLPQTDFIIVLADGQVSEMGPYPALLQRNGSFANFLCNYAPDEDQGHLEDSWTALEGAEDKEALLIEDTLSNHTDLTDNDPVTYVVQKQFMRQLSALSSDGEGQGRPVPRRHLGPSEKVQVTEAKADGALTQEEKAAIGTVELSVFWDYAKAVGLCTTLAICLLYVGQSAAAIGANVWLSAWTNDAMADSRQNNTSLRLGVYAALGILQGFLVMLAAMAMAAGGIQAARVLHQALLHNKIRSPQSFFDTTPSGRILNCFSKDIYVVDEVLAPVILMLLNSFFNAISTLVVIMASTPLFTVVILPLAVLYTLVQRFYAATSRQLKRLESVSRSPIYSHFSETVTGASVIRAYNRSRDFEIISDTKVDANQRSCYPYIISNRWLSIGVEFVGNCVVLFAALFAVIGRSSLNPGLVGLSVSYSLQVTFALNWMIRMMSDLESNIVAVERVKEYSKTETEAPWVVEGSRPPEGWPPRGEVEFRNYSVRYRPGLDLVLRDLSLHVHGGEKVGIVGRTGAGKSSMTLCLFRILEAAKGEIRIDGLNVADIGDPILFSGTLRMNLDPFGSYSEEDIWWALELSHLHTFVSSQPAGLDFQCSEGGENLSVGQRQLVCLARALLRKSRILVLDEATAAIDLETDNLIQATIRTQFDTCTVLTIAHRLNTIMDYTRVLVLDKGVVAEFDSPANLIAARGIFYGMARDAGLA
Turning to B1, the Michaelis-Menten constant (Km) (as a rule, the substrate concentration at which the rate is half of its maximum) in data set [1] stood at 5.3 µM; in data set [2] it was 776 µM; in data set [3], 248 µM; in data set [4], 25.6 µM; in data set [5] it was 5.7 µM.

(Values after ChEMBL document CHEMBL2074270, “Transport of amphipathic anions by human multidrug resistance protein 3” (Cancer Res, 2000).)
